{"source": "patent US20260248939A1", "about": "(SYNAFFIX B V, published 2026)", "key": {"[1]": {"target": "T1, Human PTK7 (CCK4 protein, ECD, His Tag, Sino Biological) (human, UniProt Q13308 31-704)", "T1 construct": "extracellular domain; Bought protein; also called hPTK7; HPTK7; not shown: His tag", "T1 sequence (looked up)": "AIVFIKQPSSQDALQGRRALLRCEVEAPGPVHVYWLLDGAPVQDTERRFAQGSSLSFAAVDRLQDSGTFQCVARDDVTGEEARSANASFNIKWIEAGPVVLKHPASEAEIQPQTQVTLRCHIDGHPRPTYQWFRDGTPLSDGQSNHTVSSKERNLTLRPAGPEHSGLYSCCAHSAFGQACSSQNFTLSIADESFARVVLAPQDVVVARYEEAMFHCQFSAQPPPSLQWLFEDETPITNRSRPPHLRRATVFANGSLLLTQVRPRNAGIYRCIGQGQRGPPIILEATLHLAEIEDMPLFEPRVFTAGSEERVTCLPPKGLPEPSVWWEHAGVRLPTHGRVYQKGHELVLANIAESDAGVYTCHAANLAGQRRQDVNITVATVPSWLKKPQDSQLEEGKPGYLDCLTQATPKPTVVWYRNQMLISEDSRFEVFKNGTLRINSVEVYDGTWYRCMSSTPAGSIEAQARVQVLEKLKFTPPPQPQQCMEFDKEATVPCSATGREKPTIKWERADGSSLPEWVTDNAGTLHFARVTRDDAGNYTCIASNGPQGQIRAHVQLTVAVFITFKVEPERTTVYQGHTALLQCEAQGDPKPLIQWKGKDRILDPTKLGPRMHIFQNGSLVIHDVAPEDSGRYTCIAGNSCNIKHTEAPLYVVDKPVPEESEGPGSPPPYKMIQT", "assay": "ELISA: His-tagged PTK7 on nickel plate, ADC at 8 µg/mL (Example 25), goat anti-human IgG-HRP, TMB, absorbance at 652 nm, background-corrected"}, "[2]": {"target": "T2, Rat PTK7 (His Tag, Acro Biosystems) (rat, UniProt A0A8I6ALM9 40-713)", "T2 construct": "Bought protein; also called rPTK7; not shown: His tag", "assay": "ELISA: His-tagged PTK7 on nickel plate, ADC at 8 µg/mL (Example 25), goat anti-human IgG-HRP, TMB, absorbance at 652 nm, background-corrected"}, "[3]": {"target": "T1, Human PTK7 (CCK4 protein, ECD, His Tag, …)", "assay": "ELISA: His-tagged hPTK7 on nickel plate, ADC at 8 µg/mL (Example 25), goat anti-human IgG-HRP, TMB, absorbance at 652 nm, background-corrected"}, "[4]": {"target": "T3, cynomolgus PTK7 (CCK4 protein, ECD, His Tag, Sino Biological) (cynomolgus, UniProt A0A2K5VNI5 39-712)", "T3 construct": "extracellular domain; Bought protein; also called cPTK7; cyno PTK7; not shown: His tag", "T3 sequence": "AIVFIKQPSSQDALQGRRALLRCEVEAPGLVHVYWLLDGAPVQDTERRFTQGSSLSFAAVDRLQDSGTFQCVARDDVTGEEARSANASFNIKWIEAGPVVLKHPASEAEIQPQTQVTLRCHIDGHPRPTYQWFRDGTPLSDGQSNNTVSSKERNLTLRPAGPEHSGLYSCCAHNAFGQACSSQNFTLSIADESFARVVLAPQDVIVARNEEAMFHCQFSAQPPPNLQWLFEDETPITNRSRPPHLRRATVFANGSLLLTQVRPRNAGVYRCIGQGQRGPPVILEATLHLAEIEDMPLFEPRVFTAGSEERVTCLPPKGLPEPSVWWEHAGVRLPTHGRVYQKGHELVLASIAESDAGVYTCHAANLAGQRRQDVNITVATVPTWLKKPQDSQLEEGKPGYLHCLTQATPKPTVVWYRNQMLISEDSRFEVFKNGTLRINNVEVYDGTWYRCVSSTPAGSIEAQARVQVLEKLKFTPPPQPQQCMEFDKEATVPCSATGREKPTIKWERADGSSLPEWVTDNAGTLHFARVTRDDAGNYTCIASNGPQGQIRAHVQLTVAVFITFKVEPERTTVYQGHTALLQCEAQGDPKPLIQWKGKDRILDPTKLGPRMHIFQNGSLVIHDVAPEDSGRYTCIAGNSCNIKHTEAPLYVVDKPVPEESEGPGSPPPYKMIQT", "assay": "ELISA: His-tagged PTK7 on nickel plate, ADC at 8 µg/mL (Example 25), goat anti-human IgG-HRP, TMB, absorbance at 652 nm, background-corrected"}}, "data": [{"binder": "4D5-3 (antibody, human IgG1, kappa, V domains shown, heavy-chain N-glycan trimmed to core GlcNAc, extended with 6-N3-GalNAc and clicked to BCN-HS-PEG2-HS-(va-PAB-Ex)2 (linker-drug 3, exatecan); average DAR 3.91) VH: QVQLVESGGGVVQPGRSLRLSCAASGFTFSSYAFHWVRQAPGKGLEWVAVISYDGSIKYYADSVKGRFTISRDNSKNTLYLQMNSLRAEDTAVYYCARTYYFDYWGQGTLVTVSS VL: EIVLTQSPDFQSVTPKEKVTITCRASQSIGSSLHWYQQKPDQSPKLLIKYASQSFSGVPSRFSGSGSGTDFTLTINSLEAEDAAAYYCHQSSSLPITFGQGTRLEIKR", "values": [{"measurement": "binding result", "setting": "[1]", "result": "binds"}, {"measurement": "binding result", "setting": "[2]", "result": "no binding (tested: 8 µg/mL)"}]}, {"binder": "B12-3 (antibody, human IgG1, kappa, V domains shown, also called B12 (VI) conjugated with linker-drug 3; isotype control ADC) VH: QVQLVQSGAEVKKPGASVKVSCQASGYRFSNFVIHWVRQAPGQRFEWMGWINPYNGNKEFSAKFQDRVTFTADTSANTAYMELRSLRSADTAVYYCARVGPYSWDDSPQDNYYMDVWGKGTTVIVSS VL: EIVLTQSPGTLSLSPGERATFSCRSSHSIRSRRVAWYQHKPGQAPRLVIHGVSNRASGISDRFSGSGSGTDFTLTITRVEPEDFALYYCQVYGASSYTFGQGTKLERKR", "values": [{"measurement": "binding result", "setting": "[3]", "result": "no binding (tested: 8 µg/mL)"}]}, {"binder": "12C6a-3 (antibody, human IgG1, kappa, V domains shown, heavy-chain N-glycan trimmed to core GlcNAc, extended with 6-N3-GalNAc and clicked to BCN-HS-PEG2-HS-(va-PAB-Ex)2 (linker-drug 3, exatecan); average DAR 3.90, Antibody-drug conjugate of IgG 12C6a (V)) VH: VQLVQSGGGLVHPGGSLRLSCAGSGFTFSTYLMYWVRQAPGKTLEWVSAIGSGGDTYYADSVKGRFTISRDNAKNSLYLQMNSLRAEDMAVYYCARGLGYWGQGTLVTVSS VL: DIQMTQSPSSLSASVGDRVTITCRASQGISSWLAWYQQKPEKAPKSLIYAASSLQSGVPSRFSGSGSGTDFTLTISSLQPEDFATYYCQQYNSYPYTFGQGTKLEIKR", "values": [{"measurement": "binding result", "setting": "[1]", "result": "no binding (tested: 8 µg/mL)"}, {"measurement": "binding result", "setting": "[4]", "result": "no binding (tested: 8 µg/mL)"}, {"measurement": "binding result", "setting": "[2]", "result": "no binding (tested: 8 µg/mL)"}]}]}
